According to the RNAGym collection of RNA variant scans (doi:10.1021/acssynbio.7b00057):

B1: Pistol ribozyme (parent)
chain: GGGUCGUUGUUCCAUAAUCGCGUGGAUAUGGCACGCAAGUUUCUACCGGGCACCGUAAAUGUCCGACUGGAGCCGUUCGGGCGGCUAUAAACAGACCUCAGGCCCGAAGCGUGGCGGCACCUGCCGCCGGUGGUAAAAAAGAUCGGAAGAGCACACGUCU

Variants of: B1
Assay: aptazyme ON/OFF ratio, guanine; higher = stronger switching; co-transcriptional cleavage with and without guanine

Variant	aptazyme ON/OFF ratio
GGGUCGUGUACAAAUAAUCGCGUGGAUAUGGCACGCAAGUUUCUACCGGGCACCGUAAAUGUCCGACUGGAGCCGUUCGGGCGGCUAUAAACAGACCUCAGGCCCGAAGCGUGGCGGCACCUGCCGCCGGUGGUAAAAAAGAUCGGAAGAGCACACGUCU [U8G G9U U10A U11C C12A C13A]	1.1
GGGUCGUGUACAGAUAAUCGCGUGGAUAUGGCACGCAAGUUUCUACCGGGCACCGUAAAUGUCCGACUGGAGCCGUUCGGGCGGCUAUAAACAGACCUCAGGCCCGAAGCGUGGCGGCACCUGCCGCCGGUGGUAAAAAAGAUCGGAAGAGCACACGUCU [U8G G9U U10A U11C C12A C13G]	1.1
GGGUCGUGUACAUAUAAUCGCGUGGAUAUGGCACGCAAGUUUCUACCGGGCACCGUAAAUGUCCGACUGGAGCCGUUCGGGCGGCUAUAAACAGACCUCAGGCCCGAAGCGUGGCGGCACCUGCCGCCGGUGGUAAAAAAGAUCGGAAGAGCACACGUCU [U8G G9U U10A U11C C12A C13U]	1.16
GGGUCGUGUAUCGAUAAUCGCGUGGAUAUGGCACGCAAGUUUCUACCGGGCACCGUAAAUGUCCGACUGGAGCCGUUCGGGCGGCUAUAAACAGACCUCAGGCCCGAAGCGUGGCGGCACCUGCCGCCGGUGGUAAAAAAGAUCGGAAGAGCACACGUCU [U8G G9U U10A C13G]	1.06
GGGUCGUGUAUCUAUAAUCGCGUGGAUAUGGCACGCAAGUUUCUACCGGGCACCGUAAAUGUCCGACUGGAGCCGUUCGGGCGGCUAUAAACAGACCUCAGGCCCGAAGCGUGGCGGCACCUGCCGCCGGUGGUAAAAAAGAUCGGAAGAGCACACGUCU [U8G G9U U10A C13U]	1.09
GGGUCGUGUAUCAAUAAUCGCGUGGAUAUGGCACGCAAGUUUCUACCGGGCACCGUAAAUGUCCGACUGGAGCCGUUCGGGCGGCUAUAAACAGACCUCAGGCCCGAAGCGUGGCGGCACCUGCCGCCGGUGGUAAAAAAGAUCGGAAGAGCACACGUCU [U8G G9U U10A C13A]	1.1
GGGUCGUGUACUCAUAAUCGCGUGGAUAUGGCACGCAAGUUUCUACCGGGCACCGUAAAUGUCCGACUGGAGCCGUUCGGGCGGCUAUAAACAGACCUCAGGCCCGAAGCGUGGCGGCACCUGCCGCCGGUGGUAAAAAAGAUCGGAAGAGCACACGUCU [U8G G9U U10A U11C C12U]	1.05
GGGUCGUGUACACAUAAUCGCGUGGAUAUGGCACGCAAGUUUCUACCGGGCACCGUAAAUGUCCGACUGGAGCCGUUCGGGCGGCUAUAAACAGACCUCAGGCCCGAAGCGUGGCGGCACCUGCCGCCGGUGGUAAAAAAGAUCGGAAGAGCACACGUCU [U8G G9U U10A U11C C12A]	1.12
GGGUCGUGUACGCAUAAUCGCGUGGAUAUGGCACGCAAGUUUCUACCGGGCACCGUAAAUGUCCGACUGGAGCCGUUCGGGCGGCUAUAAACAGACCUCAGGCCCGAAGCGUGGCGGCACCUGCCGCCGGUGGUAAAAAAGAUCGGAAGAGCACACGUCU [U8G G9U U10A U11C C12G]	1.1
GGGUCGUGUAAGGAUAAUCGCGUGGAUAUGGCACGCAAGUUUCUACCGGGCACCGUAAAUGUCCGACUGGAGCCGUUCGGGCGGCUAUAAACAGACCUCAGGCCCGAAGCGUGGCGGCACCUGCCGCCGGUGGUAAAAAAGAUCGGAAGAGCACACGUCU [U8G G9U U10A U11A C12G C13G]	1.18
GGGUCGUGUAAGAAUAAUCGCGUGGAUAUGGCACGCAAGUUUCUACCGGGCACCGUAAAUGUCCGACUGGAGCCGUUCGGGCGGCUAUAAACAGACCUCAGGCCCGAAGCGUGGCGGCACCUGCCGCCGGUGGUAAAAAAGAUCGGAAGAGCACACGUCU [U8G G9U U10A U11A C12G C13A]	1.2
GGGUCGUGUAAGUAUAAUCGCGUGGAUAUGGCACGCAAGUUUCUACCGGGCACCGUAAAUGUCCGACUGGAGCCGUUCGGGCGGCUAUAAACAGACCUCAGGCCCGAAGCGUGGCGGCACCUGCCGCCGGUGGUAAAAAAGAUCGGAAGAGCACACGUCU [U8G G9U U10A U11A C12G C13U]	1.22
GGGUCGUGUACUAAUAAUCGCGUGGAUAUGGCACGCAAGUUUCUACCGGGCACCGUAAAUGUCCGACUGGAGCCGUUCGGGCGGCUAUAAACAGACCUCAGGCCCGAAGCGUGGCGGCACCUGCCGCCGGUGGUAAAAAAGAUCGGAAGAGCACACGUCU [U8G G9U U10A U11C C12U C13A]	1.08
GGGUCGUGUACUGAUAAUCGCGUGGAUAUGGCACGCAAGUUUCUACCGGGCACCGUAAAUGUCCGACUGGAGCCGUUCGGGCGGCUAUAAACAGACCUCAGGCCCGAAGCGUGGCGGCACCUGCCGCCGGUGGUAAAAAAGAUCGGAAGAGCACACGUCU [U8G G9U U10A U11C C12U C13G]	1.05
GGGUCGUGUACUUAUAAUCGCGUGGAUAUGGCACGCAAGUUUCUACCGGGCACCGUAAAUGUCCGACUGGAGCCGUUCGGGCGGCUAUAAACAGACCUCAGGCCCGAAGCGUGGCGGCACCUGCCGCCGGUGGUAAAAAAGAUCGGAAGAGCACACGUCU [U8G G9U U10A U11C C12U C13U]	1.05
GGGUCGUGUACGGAUAAUCGCGUGGAUAUGGCACGCAAGUUUCUACCGGGCACCGUAAAUGUCCGACUGGAGCCGUUCGGGCGGCUAUAAACAGACCUCAGGCCCGAAGCGUGGCGGCACCUGCCGCCGGUGGUAAAAAAGAUCGGAAGAGCACACGUCU [U8G G9U U10A U11C C12G C13G]	1.11
GGGUCGUGUACGAAUAAUCGCGUGGAUAUGGCACGCAAGUUUCUACCGGGCACCGUAAAUGUCCGACUGGAGCCGUUCGGGCGGCUAUAAACAGACCUCAGGCCCGAAGCGUGGCGGCACCUGCCGCCGGUGGUAAAAAAGAUCGGAAGAGCACACGUCU [U8G G9U U10A U11C C12G C13A]	1.08
GGGUCGUGUACGUAUAAUCGCGUGGAUAUGGCACGCAAGUUUCUACCGGGCACCGUAAAUGUCCGACUGGAGCCGUUCGGGCGGCUAUAAACAGACCUCAGGCCCGAAGCGUGGCGGCACCUGCCGCCGGUGGUAAAAAAGAUCGGAAGAGCACACGUCU [U8G G9U U10A U11C C12G C13U]	1.11

Variant	aptazyme ON/OFF ratio
GGGUCGUGUAAAUAUAAUCGCGUGGAUAUGGCACGCAAGUUUCUACCGGGCACCGUAAAUGUCCGACUGGAGCCGUUCGGGCGGCUAUAAACAGACCUCAGGCCCGAAGCGUGGCGGCACCUGCCGCCGGUGGUAAAAAAGAUCGGAAGAGCACACGUCU [U8G G9U U10A U11A C12A C13U]	1.22
GGGUCGUGUAAAAAUAAUCGCGUGGAUAUGGCACGCAAGUUUCUACCGGGCACCGUAAAUGUCCGACUGGAGCCGUUCGGGCGGCUAUAAACAGACCUCAGGCCCGAAGCGUGGCGGCACCUGCCGCCGGUGGUAAAAAAGAUCGGAAGAGCACACGUCU [U8G G9U U10A U11A C12A C13A]	1.15
GGGUCGUGUAAAGAUAAUCGCGUGGAUAUGGCACGCAAGUUUCUACCGGGCACCGUAAAUGUCCGACUGGAGCCGUUCGGGCGGCUAUAAACAGACCUCAGGCCCGAAGCGUGGCGGCACCUGCCGCCGGUGGUAAAAAAGAUCGGAAGAGCACACGUCU [U8G G9U U10A U11A C12A C13G]	1.16
GGGUCGUGUAAUAAUAAUCGCGUGGAUAUGGCACGCAAGUUUCUACCGGGCACCGUAAAUGUCCGACUGGAGCCGUUCGGGCGGCUAUAAACAGACCUCAGGCCCGAAGCGUGGCGGCACCUGCCGCCGGUGGUAAAAAAGAUCGGAAGAGCACACGUCU [U8G G9U U10A U11A C12U C13A]	1.14
GGGUCGUGUAAUGAUAAUCGCGUGGAUAUGGCACGCAAGUUUCUACCGGGCACCGUAAAUGUCCGACUGGAGCCGUUCGGGCGGCUAUAAACAGACCUCAGGCCCGAAGCGUGGCGGCACCUGCCGCCGGUGGUAAAAAAGAUCGGAAGAGCACACGUCU [U8G G9U U10A U11A C12U C13G]	1.11
GGGUCGUGUAAUUAUAAUCGCGUGGAUAUGGCACGCAAGUUUCUACCGGGCACCGUAAAUGUCCGACUGGAGCCGUUCGGGCGGCUAUAAACAGACCUCAGGCCCGAAGCGUGGCGGCACCUGCCGCCGGUGGUAAAAAAGAUCGGAAGAGCACACGUCU [U8G G9U U10A U11A C12U C13U]	1.15
GGGUCGUGUAAACAUAAUCGCGUGGAUAUGGCACGCAAGUUUCUACCGGGCACCGUAAAUGUCCGACUGGAGCCGUUCGGGCGGCUAUAAACAGACCUCAGGCCCGAAGCGUGGCGGCACCUGCCGCCGGUGGUAAAAAAGAUCGGAAGAGCACACGUCU [U8G G9U U10A U11A C12A]	1.34
GGGUCGUGUAAGCAUAAUCGCGUGGAUAUGGCACGCAAGUUUCUACCGGGCACCGUAAAUGUCCGACUGGAGCCGUUCGGGCGGCUAUAAACAGACCUCAGGCCCGAAGCGUGGCGGCACCUGCCGCCGGUGGUAAAAAAGAUCGGAAGAGCACACGUCU [U8G G9U U10A U11A C12G]	1.14
GGGUCGUGUAAUCAUAAUCGCGUGGAUAUGGCACGCAAGUUUCUACCGGGCACCGUAAAUGUCCGACUGGAGCCGUUCGGGCGGCUAUAAACAGACCUCAGGCCCGAAGCGUGGCGGCACCUGCCGCCGGUGGUAAAAAAGAUCGGAAGAGCACACGUCU [U8G G9U U10A U11A C12U]	1.19
GGGUCGUGUAACGAUAAUCGCGUGGAUAUGGCACGCAAGUUUCUACCGGGCACCGUAAAUGUCCGACUGGAGCCGUUCGGGCGGCUAUAAACAGACCUCAGGCCCGAAGCGUGGCGGCACCUGCCGCCGGUGGUAAAAAAGAUCGGAAGAGCACACGUCU [U8G G9U U10A U11A C13G]	1.09
GGGUCGUGUAACAAUAAUCGCGUGGAUAUGGCACGCAAGUUUCUACCGGGCACCGUAAAUGUCCGACUGGAGCCGUUCGGGCGGCUAUAAACAGACCUCAGGCCCGAAGCGUGGCGGCACCUGCCGCCGGUGGUAAAAAAGAUCGGAAGAGCACACGUCU [U8G G9U U10A U11A C13A]	1.19
GGGUCGUGUAACUAUAAUCGCGUGGAUAUGGCACGCAAGUUUCUACCGGGCACCGUAAAUGUCCGACUGGAGCCGUUCGGGCGGCUAUAAACAGACCUCAGGCCCGAAGCGUGGCGGCACCUGCCGCCGGUGGUAAAAAAGAUCGGAAGAGCACACGUCU [U8G G9U U10A U11A C13U]	1.25
GGGUCGUGUACCAAUAAUCGCGUGGAUAUGGCACGCAAGUUUCUACCGGGCACCGUAAAUGUCCGACUGGAGCCGUUCGGGCGGCUAUAAACAGACCUCAGGCCCGAAGCGUGGCGGCACCUGCCGCCGGUGGUAAAAAAGAUCGGAAGAGCACACGUCU [U8G G9U U10A U11C C13A]	1.02
GGGUCGUGUAUUUAUAAUCGCGUGGAUAUGGCACGCAAGUUUCUACCGGGCACCGUAAAUGUCCGACUGGAGCCGUUCGGGCGGCUAUAAACAGACCUCAGGCCCGAAGCGUGGCGGCACCUGCCGCCGGUGGUAAAAAAGAUCGGAAGAGCACACGUCU [U8G G9U U10A C12U C13U]	1.17
GGGUCGUGUAUUAAUAAUCGCGUGGAUAUGGCACGCAAGUUUCUACCGGGCACCGUAAAUGUCCGACUGGAGCCGUUCGGGCGGCUAUAAACAGACCUCAGGCCCGAAGCGUGGCGGCACCUGCCGCCGGUGGUAAAAAAGAUCGGAAGAGCACACGUCU [U8G G9U U10A C12U C13A]	1.2
GGGUCGUGUAUUGAUAAUCGCGUGGAUAUGGCACGCAAGUUUCUACCGGGCACCGUAAAUGUCCGACUGGAGCCGUUCGGGCGGCUAUAAACAGACCUCAGGCCCGAAGCGUGGCGGCACCUGCCGCCGGUGGUAAAAAAGAUCGGAAGAGCACACGUCU [U8G G9U U10A C12U C13G]	1.19
GGGUCGUGUAACCAUAAUCGCGUGGAUAUGGCACGCAAGUUUCUACCGGGCACCGUAAAUGUCCGACUGGAGCCGUUCGGGCGGCUAUAAACAGACCUCAGGCCCGAAGCGUGGCGGCACCUGCCGCCGGUGGUAAAAAAGAUCGGAAGAGCACACGUCU [U8G G9U U10A U11A]	1.59
GGGUCGUGUACCCAUAAUCGCGUGGAUAUGGCACGCAAGUUUCUACCGGGCACCGUAAAUGUCCGACUGGAGCCGUUCGGGCGGCUAUAAACAGACCUCAGGCCCGAAGCGUGGCGGCACCUGCCGCCGGUGGUAAAAAAGAUCGGAAGAGCACACGUCU [U8G G9U U10A U11C]	1.01
